Source: patent US20190076505A1 (TORAY INDUSTRIES, published 2019)

Target: HLA-DRB1*04 molecules (human)
Assay: cell-based or functional assay

Row | Binder | IFN-γ production (ELISA) by CD4-positive T cells against peptide-pulsed PBMCs expressing HLA-DRB1*04 [pg/mL]
1 | ASEYRWHINFTT [polypeptide consisting of the amino acid sequence represented by SEQ ID NO: 45] | ≥ 1000
2 | VEYVWRNIILMSLLHLGALYGITL [polypeptide consisting of the amino acid sequence represented by SEQ ID NO: 37] | ≥ 1000
3 | AEKLVMFQRRYYKPGLL [polypeptide consisting of the amino acid sequence represented by SEQ ID NO: 43] | ≥ 1000
4 | WGVFYYFVSALGITAGAH [polypeptide consisting of the amino acid sequence represented by SEQ ID NO: 38] | ≥ 1000
5 | TAGAHRLWSHRSYKARLPLR [polypeptide consisting of the amino acid sequence represented by SEQ ID NO: 39] | ≥ 1000
6 | HVGWLLVRKHPAVKE [polypeptide consisting of the amino acid sequence represented by SEQ ID NO: 42] | ≥ 1000
7 | PLRLFLIIANTMAFQN [polypeptide consisting of the amino acid sequence represented by SEQ ID NO: 41] | ≥ 1000
8 | HRSYKARLPLRLFLI [polypeptide consisting of the amino acid sequence represented by SEQ ID NO: 40] | ≥ 1000
9 | NATWLVNSAAHLFGYR [polypeptide consisting of the amino acid sequence represented by SEQ ID NO: 44] | ≥ 1000
